Measured values published in the supplement of paper PMC10065799, “High-throughput profiling of sequence recognition by tyrosine kinases and SH2 domains using bacterial peptide display” (eLife, 2023).

What was measured:
AncSZ = assay: phosphorylation enrichment, bacterial display (enrichment ratio); higher = better substrate or ligand; peptides without Tyr show the background
EPHB1 = EPHB1 (UniProt P54762); assay: as above
EPHB2 = EPHB2 (UniProt P29323); assay: as above
FGFR1 = FGFR1 (UniProt P11362); assay: as above
FGFR1, sequence (P11362 whole entry, looked up): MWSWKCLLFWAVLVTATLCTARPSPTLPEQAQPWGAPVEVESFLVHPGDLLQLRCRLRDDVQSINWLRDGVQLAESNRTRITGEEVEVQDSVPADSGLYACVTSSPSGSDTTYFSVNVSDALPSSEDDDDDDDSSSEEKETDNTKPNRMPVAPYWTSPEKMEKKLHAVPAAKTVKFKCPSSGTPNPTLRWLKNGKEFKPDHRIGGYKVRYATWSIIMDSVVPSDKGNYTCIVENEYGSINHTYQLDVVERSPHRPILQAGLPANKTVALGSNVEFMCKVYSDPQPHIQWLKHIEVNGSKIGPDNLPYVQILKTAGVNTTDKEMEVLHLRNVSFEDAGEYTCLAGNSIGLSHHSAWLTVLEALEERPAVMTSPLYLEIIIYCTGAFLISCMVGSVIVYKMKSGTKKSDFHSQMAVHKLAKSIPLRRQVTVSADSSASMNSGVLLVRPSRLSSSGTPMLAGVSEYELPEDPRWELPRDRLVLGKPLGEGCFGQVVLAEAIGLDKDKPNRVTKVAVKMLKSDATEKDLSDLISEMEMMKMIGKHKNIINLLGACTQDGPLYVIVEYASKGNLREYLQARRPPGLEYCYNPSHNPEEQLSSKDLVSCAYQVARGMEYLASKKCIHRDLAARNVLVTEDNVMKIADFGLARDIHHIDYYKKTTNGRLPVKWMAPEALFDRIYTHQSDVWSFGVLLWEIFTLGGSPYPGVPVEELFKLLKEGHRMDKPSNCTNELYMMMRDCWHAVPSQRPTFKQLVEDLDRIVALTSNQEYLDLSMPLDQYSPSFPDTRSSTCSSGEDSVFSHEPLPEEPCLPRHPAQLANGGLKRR

FGFR3 = FGFR3 (UniProt P22607); assay: as above
Fer (mouse) = assay: as above
Fes = Fes (UniProt P07332); assay: as above
Fes, sequence (P07332 whole entry, looked up): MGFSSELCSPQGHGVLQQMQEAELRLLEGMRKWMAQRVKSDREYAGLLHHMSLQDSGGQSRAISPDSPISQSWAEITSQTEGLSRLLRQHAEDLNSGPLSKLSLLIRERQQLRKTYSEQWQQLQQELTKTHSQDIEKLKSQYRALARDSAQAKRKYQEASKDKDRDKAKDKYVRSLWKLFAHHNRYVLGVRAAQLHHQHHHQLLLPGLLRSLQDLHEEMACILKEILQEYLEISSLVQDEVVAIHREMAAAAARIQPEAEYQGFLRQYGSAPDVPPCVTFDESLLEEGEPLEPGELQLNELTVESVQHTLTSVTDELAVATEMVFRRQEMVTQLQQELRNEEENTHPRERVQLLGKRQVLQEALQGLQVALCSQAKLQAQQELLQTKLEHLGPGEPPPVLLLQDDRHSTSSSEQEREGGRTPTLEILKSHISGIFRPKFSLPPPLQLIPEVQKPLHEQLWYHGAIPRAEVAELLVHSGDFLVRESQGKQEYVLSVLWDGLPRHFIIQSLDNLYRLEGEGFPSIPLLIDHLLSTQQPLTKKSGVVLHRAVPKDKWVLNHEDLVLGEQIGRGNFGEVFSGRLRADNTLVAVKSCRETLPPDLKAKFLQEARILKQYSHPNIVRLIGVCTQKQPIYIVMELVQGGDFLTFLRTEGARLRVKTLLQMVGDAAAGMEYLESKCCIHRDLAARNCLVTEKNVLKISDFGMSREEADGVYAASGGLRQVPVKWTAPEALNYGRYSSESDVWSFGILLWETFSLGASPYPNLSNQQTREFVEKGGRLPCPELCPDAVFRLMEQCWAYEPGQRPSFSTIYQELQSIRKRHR

Fyn = Fyn (UniProt P06241); assay: as above
Fyn, sequence (P06241 whole entry, looked up): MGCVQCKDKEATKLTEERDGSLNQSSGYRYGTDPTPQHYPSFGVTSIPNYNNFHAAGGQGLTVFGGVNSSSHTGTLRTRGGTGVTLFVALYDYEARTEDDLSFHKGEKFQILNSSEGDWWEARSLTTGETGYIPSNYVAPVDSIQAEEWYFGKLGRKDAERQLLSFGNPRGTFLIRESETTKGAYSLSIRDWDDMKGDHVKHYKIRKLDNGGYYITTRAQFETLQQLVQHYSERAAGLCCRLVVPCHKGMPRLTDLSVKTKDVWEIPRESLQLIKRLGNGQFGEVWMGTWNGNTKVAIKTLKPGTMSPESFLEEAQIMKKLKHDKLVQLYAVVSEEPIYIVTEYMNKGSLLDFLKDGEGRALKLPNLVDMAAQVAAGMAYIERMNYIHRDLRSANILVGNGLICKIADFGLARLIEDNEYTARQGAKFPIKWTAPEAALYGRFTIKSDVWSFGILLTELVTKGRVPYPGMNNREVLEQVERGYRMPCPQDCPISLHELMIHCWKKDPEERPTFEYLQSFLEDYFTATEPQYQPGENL

Hck = Hck (UniProt P08631); assay: as above
Hck, sequence (P08631 whole entry, looked up): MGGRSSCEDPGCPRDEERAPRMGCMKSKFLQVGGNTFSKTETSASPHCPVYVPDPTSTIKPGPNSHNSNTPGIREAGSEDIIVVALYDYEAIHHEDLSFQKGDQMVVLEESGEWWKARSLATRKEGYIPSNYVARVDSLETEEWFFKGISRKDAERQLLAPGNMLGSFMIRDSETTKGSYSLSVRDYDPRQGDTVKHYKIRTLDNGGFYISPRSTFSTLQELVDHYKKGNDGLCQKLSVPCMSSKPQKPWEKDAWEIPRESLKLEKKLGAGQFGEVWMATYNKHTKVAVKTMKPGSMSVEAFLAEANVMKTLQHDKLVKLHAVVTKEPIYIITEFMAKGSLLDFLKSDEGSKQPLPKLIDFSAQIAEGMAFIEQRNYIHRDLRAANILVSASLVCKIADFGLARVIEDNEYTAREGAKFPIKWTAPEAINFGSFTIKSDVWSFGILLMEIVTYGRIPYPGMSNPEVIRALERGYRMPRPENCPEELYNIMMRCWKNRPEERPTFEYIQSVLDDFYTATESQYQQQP

Jak2 = Jak2 (UniProt O60674); assay: as above
Jak2, sequence (O60674 whole entry, looked up): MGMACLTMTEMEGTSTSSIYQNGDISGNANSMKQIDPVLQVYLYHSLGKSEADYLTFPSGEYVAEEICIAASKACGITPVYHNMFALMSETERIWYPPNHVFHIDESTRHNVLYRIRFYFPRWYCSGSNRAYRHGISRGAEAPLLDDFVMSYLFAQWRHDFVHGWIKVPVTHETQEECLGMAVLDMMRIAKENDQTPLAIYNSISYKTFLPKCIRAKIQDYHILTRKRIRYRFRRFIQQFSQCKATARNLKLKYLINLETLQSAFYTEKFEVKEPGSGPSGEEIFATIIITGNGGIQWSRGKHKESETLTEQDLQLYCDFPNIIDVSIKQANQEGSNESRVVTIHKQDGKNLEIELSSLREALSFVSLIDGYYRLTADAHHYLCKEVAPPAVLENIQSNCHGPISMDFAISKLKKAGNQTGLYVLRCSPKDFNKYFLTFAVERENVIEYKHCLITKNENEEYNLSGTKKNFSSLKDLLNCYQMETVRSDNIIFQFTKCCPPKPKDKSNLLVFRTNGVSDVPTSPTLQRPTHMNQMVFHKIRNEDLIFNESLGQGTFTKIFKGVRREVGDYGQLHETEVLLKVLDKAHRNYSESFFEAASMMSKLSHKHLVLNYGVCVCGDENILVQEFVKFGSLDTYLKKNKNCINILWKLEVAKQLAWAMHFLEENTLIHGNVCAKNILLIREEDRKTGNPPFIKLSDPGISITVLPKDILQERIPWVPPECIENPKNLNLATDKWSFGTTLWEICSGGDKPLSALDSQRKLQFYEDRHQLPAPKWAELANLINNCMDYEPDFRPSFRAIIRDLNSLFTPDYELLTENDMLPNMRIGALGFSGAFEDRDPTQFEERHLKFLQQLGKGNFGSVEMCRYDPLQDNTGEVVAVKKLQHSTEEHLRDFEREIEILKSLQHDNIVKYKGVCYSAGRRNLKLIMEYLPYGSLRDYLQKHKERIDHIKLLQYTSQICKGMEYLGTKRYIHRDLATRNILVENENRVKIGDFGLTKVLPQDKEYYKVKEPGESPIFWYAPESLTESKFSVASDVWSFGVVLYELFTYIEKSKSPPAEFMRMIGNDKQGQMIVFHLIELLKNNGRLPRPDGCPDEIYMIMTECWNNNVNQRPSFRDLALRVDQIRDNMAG

MERTK = MERTK (UniProt Q12866); assay: as above
MERTK, sequence (Q12866 whole entry, looked up): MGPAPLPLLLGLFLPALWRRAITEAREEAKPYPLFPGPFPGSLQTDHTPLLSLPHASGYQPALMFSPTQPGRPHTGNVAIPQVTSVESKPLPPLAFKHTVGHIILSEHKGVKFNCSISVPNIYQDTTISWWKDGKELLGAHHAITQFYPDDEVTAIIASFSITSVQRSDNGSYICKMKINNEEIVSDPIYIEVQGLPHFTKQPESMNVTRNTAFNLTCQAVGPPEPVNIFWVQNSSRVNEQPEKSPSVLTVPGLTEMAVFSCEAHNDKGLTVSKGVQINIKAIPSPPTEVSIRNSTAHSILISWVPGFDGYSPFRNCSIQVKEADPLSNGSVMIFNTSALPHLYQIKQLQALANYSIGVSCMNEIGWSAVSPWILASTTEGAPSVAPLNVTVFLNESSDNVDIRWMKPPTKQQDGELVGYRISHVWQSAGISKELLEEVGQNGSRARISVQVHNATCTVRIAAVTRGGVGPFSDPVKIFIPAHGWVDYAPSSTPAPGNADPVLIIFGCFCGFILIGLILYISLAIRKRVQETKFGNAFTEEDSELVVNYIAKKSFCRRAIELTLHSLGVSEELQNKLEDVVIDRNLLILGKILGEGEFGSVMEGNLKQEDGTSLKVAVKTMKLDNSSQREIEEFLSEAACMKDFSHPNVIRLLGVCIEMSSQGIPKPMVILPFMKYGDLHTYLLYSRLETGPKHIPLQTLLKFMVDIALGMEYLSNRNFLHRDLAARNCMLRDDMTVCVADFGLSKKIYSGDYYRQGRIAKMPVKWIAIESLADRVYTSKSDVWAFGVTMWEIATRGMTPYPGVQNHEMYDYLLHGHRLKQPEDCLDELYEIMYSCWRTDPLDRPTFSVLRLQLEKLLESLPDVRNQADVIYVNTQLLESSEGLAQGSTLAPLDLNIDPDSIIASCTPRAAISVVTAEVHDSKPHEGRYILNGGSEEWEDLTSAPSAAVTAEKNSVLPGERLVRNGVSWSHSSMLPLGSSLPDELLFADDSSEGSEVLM

c-Abl (mouse) = assay: as above
c-Src = assay: as above
Grb2 SH2 = Grb2 SH2 (UniProt P62993); assay: SH2 binding enrichment of the phosphorylated peptide, bacterial display (enrichment ratio); higher = better substrate or ligand; peptides without Tyr show the background
Grb2 SH2, sequence (P62993 whole entry, looked up): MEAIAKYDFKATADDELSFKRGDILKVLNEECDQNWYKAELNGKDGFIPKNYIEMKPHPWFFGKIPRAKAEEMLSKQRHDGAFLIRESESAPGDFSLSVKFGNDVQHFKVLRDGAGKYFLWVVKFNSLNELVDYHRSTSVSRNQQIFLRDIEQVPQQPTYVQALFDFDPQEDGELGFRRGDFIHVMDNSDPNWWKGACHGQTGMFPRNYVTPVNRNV

SHP2-C SH2 = assay: as above
c-Src SH2 = assay: as above
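For SH2 binding enrichment of the phosphorylated peptide, bacterial display in this document: peptide library displayed on the E. coli surface as eCPX fusions, selected cells deep-sequenced, score is each peptide's frequency after selection divided by its frequency in the input.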
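For phosphorylation enrichment, bacterial display in this document: 11-residue human phosphosite peptides and single-mutation variants displayed on the E. coli surface, counted by deep sequencing, each peptide's frequency after selection divided by its frequency in the unselected input library; frequency after pTyr selection over input frequency; kinase dosed for 20-30% of maximal phosphorylation in three min.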

Row | Sequence | phosphorylation enrichment (AncSZ) | phosphorylation enrichment (EPHB1) | phosphorylation enrichment (EPHB2) | phosphorylation enrichment (FGFR1) | phosphorylation enrichment (FGFR3) | phosphorylation enrichment (Fer (mouse)) | phosphorylation enrichment (Fes) | phosphorylation enrichment (Fyn) | phosphorylation enrichment (Hck) | phosphorylation enrichment (Jak2) | phosphorylation enrichment (MERTK) | phosphorylation enrichment (c-Abl (mouse)) | phosphorylation enrichment (c-Src) | SH2 binding enrichment (Grb2 SH2) | SH2 binding enrichment (SHP2-C SH2) | SH2 binding enrichment (c-Src SH2)
1 | MAQDIYRASFF [ALK_Y1278_R1275Q_YF] | 0.683 | 0.353 | 0.499 | 0.462 | 0.482 | 0.446 | 0.69 | 1.52 | 2.06 | 0.711 | 0.66 | 12.2 | 2.28 | 1.04 | 0.738 | 0.456
2 | MEIHAYRKLSE [LMNA_Y376_L380S] | 0.729 | 0.379 | 0.459 | 0.371 | 0.495 | 0.39 | 0.788 | 0.356 | 0.466 | 0.678 | 0.342 | 0.641 | 0.384 | 0.718 | 0.641 | 0.432
3 | MEVGQYIFVKC [CYBB_Y324] | 1.74 | 0.835 | 0.723 | 2.8 | 2.43 | 0.708 | 1.53 | 0.599 | 0.582 | 1.53 | 0.511 | 1.01 | 0.463 | 0.781 | 0.651 | 0.539
4 | MGCVNYGAFIN [GLB1_Y485_R482C_YF] | 1.05 | 0.69 | 0.617 | 0.531 | 0.825 | 0.522 | 1.26 | 0.553 | 0.532 | 1.14 | 0.606 | 1.01 | 1.19 | 0.752 | 0.793 | 0.514
5 | MGHVNYGAYIN [GLB1_Y485_R482H] | 0.602 | 0.535 | 0.796 | 0.384 | 0.444 | 0.395 | 0.661 | 0.521 | 0.471 | 0.672 | 0.358 | 0.571 | 0.589 | 5.27 | 0.902 | 1.39
6 | MHDSNYVSKGS [PDGFRA_Y849] | 0.648 | 0.388 | 0.416 | 0.501 | 0.459 | 0.393 | 0.73 | 0.535 | 0.554 | 0.55 | 0.451 | 0.508 | 0.482 | 0.739 | 0.546 | 0.404
7 | MHLRQYELLGG [GNAS_Y391] | 0.663 | 0.75 | 0.453 | 0.558 | 0.705 | 0.507 | 0.869 | 0.464 | 0.506 | 0.634 | 0.773 | 0.541 | 0.516 | 0.868 | 0.689 | 7.91
8 | MKNQKYGRIIM [HSD17B4_Y143_K140N] | 0.527 | 0.376 | 0.34 | 0.433 | 0.386 | 0.341 | 0.646 | 0.424 | 0.439 | 0.587 | 0.301 | 0.54 | 0.301 | 1.49 | 1.64 | 1.05
9 | MNLLGYRHVRS [CHST4_Y359] | 0.761 | 0.423 | 0.461 | 0.612 | 0.466 | 0.409 | 0.738 | 0.403 | 0.488 | 0.691 | 0.4 | 0.663 | 0.405 | 0.855 | 0.748 | 0.545
10 | MPPHICAITDT [MYH9_Y151_Y151C] | 0.809 | 0.628 | 0.53 | 0.578 | 0.685 | 0.631 | 1.1 | 0.51 | 0.538 | 0.981 | 0.473 | 1.34 | 0.529 | 1.1 | 0.706 | 0.657
11 | MSRDVYSTDCY [NTRK2_Y702_Y706C] | 0.993 | 0.718 | 0.701 | 0.726 | 0.766 | 0.631 | 1.14 | 2.1 | 0.972 | 1.06 | 1.51 | 0.993 | 2.32 | 1.15 | 0.719 | 0.932
12 | MSSLPYMKMIF [SLC4A11_Y853] | 0.946 | 0.474 | 0.541 | 0.753 | 0.706 | 1.05 | 1.03 | 0.421 | 0.692 | 1.65 | 0.566 | 0.732 | 0.813 | 1.21 | 1.51 | 1.71
13 | MVIPNYSSRTE [UROC1_Y185] | 0.535 | 0.477 | 0.462 | 0.406 | 0.416 | 0.435 | 0.642 | 0.406 | 0.329 | 0.486 | 0.425 | 0.438 | 0.446 | 0.711 | 0.488 | 0.55
14 | NFADPYRQLQF [CTNND2_Y503_YF] | 0.765 | 0.494 | 0.502 | 0.516 | 0.557 | 0.436 | 0.826 | 0.473 | 0.539 | 0.667 | 0.454 | 0.654 | 0.563 | 0.878 | 1.04 | 0.555
15 | NIKKEYAKMVQ [PMS2_Y181] | 0.549 | 0.345 | 0.413 | 0.358 | 0.39 | 0.294 | 0.615 | 0.335 | 0.451 | 0.436 | 0.392 | 0.422 | 0.312 | 0.824 | 0.791 | 0.623
16 | NKEAIYSGFIR [SMCHD1_Y283_YF] | 0.78 | 5.18 | 7.14 | 0.59 | 0.557 | 5.17 | 1.01 | 14.5 | 13.1 | 0.711 | 12.7 | 33.6 | 9.78 | 0.713 | 0.636 | 0.392
